Changes are numbered by the printed parent chain. Numbers in names are those of the source.
B1: S. cerevisiae Fdc1 (Saccharomyces cerevisiae S288C) (protein)
chain: MRKLNPALEFRDFIQVLKDEDDLIEITEEIDPNLEVGAIMRKAYESHLPAPLFKNLKGASKDLFSILGCPAGLRSKEKGDHGRIAHHLGLDPKTTIKEIIDYLLECKEKEPLPPITVPVSSAPCKTHILSEEKIHLQSLPTPYLHVSDGGKYLQTYGMWILQTPDKKWTNWSIARGMVVDDKHITGLVIKPQHIRQIADSWAAIGKANEIPFALCFGVPPAAILVSSMPIPEGVSESDYVGAILGESVPVVKCETNDLMVPATSEMVFEGTLSLTDTHLEGPFGEMHGYVFKSQGHPCPLYTVKAMSYRDNAILPVSNPGLCTDETHTLIGSLVATEAKELAIESGLPILDAFMPYEAQALWLILKVDLKGLQALKTTPEEFCKKVGDIYFRTKVGFIVHEIILVADDIDIFNFKEVIWAYVTRHTPVADQMAFDDVTSFPLAPFVSQSSRSKTMKGGKCVTNCIFRQQYERSFDYITCNFEKGYPKGLVDKVNENWKRYGYK
B2: S. cerevisiae Fdc1 (Saccharomyces cerevisiae S288C; E285D) (protein)
chain: B1 chain with E285D
B3: S. cerevisiae Fdc1 (Saccharomyces cerevisiae S288C; E280D) (protein)
chain: B1 chain with E280D

Columns and labels:
[1] = system: O=C(O)/C=C/c1ccccc1; experiment: purified protein; conditions: 50 mM KCl, 50 mM NaPi, pH 6, 25 °C, prFMN holo-enzyme
[2] = biological target: A. niger Fdc1 (Aspergillus niger, UniProt A2QHE5); conditions: purified and crystallized in the dark
[3] = substrate: O=C(O)/C=C/c1ccccc1; experiment: purified protein; conditions: 50 mM KCl, 50 mM NaPi, pH 6, 25 °C, prFMN holo-enzyme; remark: listed apart in the source

Molecule | Km [1] | kcat [1] | crystal structure [2] | Km [3] | kcat [3]
A. niger Fdc1 (Aspergillus niger CBS 513.88; E282D) | 50 ± 10 µM | 0.63 ± 0.04 s⁻¹ |  |  | 
Cc1cc2c3c(c1C)C(C)(C)CC=[N+]3c1c(nc([O-])[nH]c1=O)N2C[C@H](O)[C@H](O)[C@H](O)COP(=O)(O)O [prFMN^iminium] |  |  | the prFMN cofactor is exclusively in the iminium form |  | 
A. niger Fdc1 (Aspergillus niger CBS 513.88) | 10.0 ± 0.6 µM | 9.4 ± 0.1 s⁻¹ |  |  | 
B1 |  |  |  | 25.5 ± 3.6 µM | 10.5 ± 0.4 s⁻¹
B2 |  |  |  | 20.4 ± 3.6 µM | 0.28 ± 0.01 s⁻¹
B3 |  |  |  | 8.6 ± 1.5 µM | 0.92 ± 0.03 s⁻¹

Source: PMC5818171, “The role of conserved residues in Fdc decarboxylase in prenylated flavin mononucleotide oxidative maturation, cofactor isomerization, and catalysis” (The Journal of Biological Chemistry, 2017)
